Reference: US20170291939A1 (Novartis, published 2017)
Each block holds one binder with its values, some of them ahead of it.

Assays:
[1] = molecular target: T1, human IL-17A (construct not specified) (human, UniProt Q16552 24-155, limits assumed); assay: ELISA, coated huIL-17A, long wash
T1 construct: also called huIL-17A
T1 sequence: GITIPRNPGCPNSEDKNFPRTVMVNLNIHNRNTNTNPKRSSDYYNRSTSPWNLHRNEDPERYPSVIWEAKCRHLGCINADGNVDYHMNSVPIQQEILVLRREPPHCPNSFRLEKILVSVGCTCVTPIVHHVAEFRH

[2] = molecular target: T1, human IL-17A (construct not specified); assay: ELISA, coated huIL-17A, crude Fab extract
[3] = molecular target: T1, human IL-17A (construct not specified); assay: ELISA, coated huIL-17A, then 200 nM XAB1 Fab as competitor

B1: MB453 (Fab, V domains shown)
VH: EVQLVESGGDLVQPGGSLRLSCAASGFTFSSYWMSWVRQAPGKGLEWVANIKQDGSEKYYVDSVKGRFTISRDNAKNSLYLQMNSLRAEDTAVYYCARDRGSLYYWGQGTLVTVSS
VL: AIQLTQSPSSLSASVGDRVTITCRPSQGIVFWLAWYQQKPGKAPKLLIYDASSLENGVPSRFSGSGSGTDFTLTISSLQPEDFATYYCQQFNSYPLTFGGGTKVEIK
notes: Fab variant of XAB1
Off-rate ELISA (normalized to XAB1 Fab) [1]: 43.3 fold
Classic ELISA (normalized to XAB1 Fab) [2]: 2.7 fold
Competition ELISA (normalized to XAB1 Fab) [3]: 46.4 fold

B5: MB457 (Fab, V domains shown)
VH: EVQLVESGGDLVQPGGSLRLSCAASGFTFSSYWMSWVRQAPGKGLEWVANIKQDGSEKYYVDSVKGRFTISRDNAKNSLYLQMNSLRAEDTAVYYCARDRGSLYYWGQGTLVTVSS
VL: AIQLTQSPSSLSASVGDRVTITCRPSQGIIWSLAWYQQKPGKAPKLLIYDASSLENGVPSRFSGSGSGTDFTLTISSLQPEDFATYYCQQFNSYPLTFGGGTKVEIK
notes: Fab variant of XAB1
Off-rate ELISA (normalized to XAB1 Fab) [1]: 34.7 fold
Classic ELISA (normalized to XAB1 Fab) [2]: 2.7 fold
Competition ELISA (normalized to XAB1 Fab) [3]: 41 fold

B7: MB458 (Fab, V domains shown)
VH: EVQLVESGGDLVQPGGSLRLSCAASGFTFSSYWMSWVRQAPGKGLEWVANIKQDGSEKYYVDSVKGRFTISRDNAKNSLYLQMNSLRAEDTAVYYCARDRGSLYYWGQGTLVTVSS
VL: AIQLTQSPSSLSASVGDRVTITCRPSQGIWYQLAWYQQKPGKAPKLLIYDASSLENGVPSRFSGSGSGTDFTLTISSLQPEDFATYYCQQFNSYPLTFGGGTKVEIK
notes: Fab variant of XAB1
Off-rate ELISA (normalized to XAB1 Fab) [1]: 33 fold
Classic ELISA (normalized to XAB1 Fab) [2]: 2.7 fold
Competition ELISA (normalized to XAB1 Fab) [3]: 42.1 fold

B8: MB461 (Fab, V domains shown)
VH: EVQLVESGGDLVQPGGSLRLSCAASGFTFSSYWMSWVRQAPGKGLEWVANIKQDGSEKYYVDSVKGRFTISRDNAKNSLYLQMNSLRAEDTAVYYCARDRGSLYYWGQGTLVTVSS
VL: AIQLTQSPSSLSASVGDRVTITCRPSQGIYWTLAWYQQKPGKAPKLLIYDASSLENGVPSRFSGSGSGTDFTLTISSLQPEDFATYYCQQFNSYPLTFGGGTKVEIK
notes: Fab variant of XAB1
Off-rate ELISA (normalized to XAB1 Fab) [1]: 49.8 fold
Classic ELISA (normalized to XAB1 Fab) [2]: 2.9 fold
Competition ELISA (normalized to XAB1 Fab) [3]: 62.8 fold

B9: MB456 (Fab, V domains shown)
VH: EVQLVESGGDLVQPGGSLRLSCAASGFTFSSYWMSWVRQAPGKGLEWVANIKQDGSEKYYVDSVKGRFTISRDNAKNSLYLQMNSLRAEDTAVYYCARDRGSLYYWGQGTLVTVSS
VL: AIQLTQSPSSLSASVGDRVTITCRPSQGILWHLAWYQQKPGKAPKLLIYDASSLENGVPSRFSGSGSGTDFTLTISSLQPEDFATYYCQQFNSYPLTFGGGTKVEIK
notes: Fab variant of XAB1
Off-rate ELISA (normalized to XAB1 Fab) [1]: 45.1 fold
Classic ELISA (normalized to XAB1 Fab) [2]: 2.4 fold
Competition ELISA (normalized to XAB1 Fab) [3]: 46.7 fold

B11: MB463 (Fab, V domains shown)
VH: EVQLVESGGDLVQPGGSLRLSCAASGFTFSSYWMSWVRQAPGKGLEWVANIKQDGSEKYYVDSVKGRFTISRDNAKNSLYLQMNSLRAEDTAVYYCARDRGSLYYWGQGTLVTVSS
VL: AIQLTQSPSSLSASVGDRVTITCRPSQGIYFELAWYQQKPGKAPKLLIYDASSLENGVPSRFSGSGSGTDFTLTISSLQPEDFATYYCQQFNSYPLTFGGGTKVEIK
notes: Fab variant of XAB1
Off-rate ELISA (normalized to XAB1 Fab) [1]: 34.2 fold
Classic ELISA (normalized to XAB1 Fab) [2]: 2.7 fold
Competition ELISA (normalized to XAB1 Fab) [3]: 31.6 fold

Continued, values first:

Off-rate ELISA (normalized to XAB1 Fab) [1]: 43 fold
Classic ELISA (normalized to XAB1 Fab) [2]: 2.1 fold
Competition ELISA (normalized to XAB1 Fab) [3]: 44.2 fold
B2: MB491 (Fab, V domains shown)
VH: EVQLVESGGDLVQPGGSLRLSCAASGFTFSSYWMSWVRQAPGKGLEWVANIKQDGSEKYYVDSVKGRFTISRDNAKNSLYLQMNSLRAEDTAVYYCARDRGSLYYWGQGTLVTVSS
VL: AIQLTQSPSSLSASVGDRVTITCRPSQGIFFWLAWYQQKPGKAPKLLIYDASSLENGVPSRFSGSGSGTDFTLTISSLQPEDFATYYCQQFNSYPLTFGGGTKVEIK
notes: Fab variant of XAB1

Off-rate ELISA (normalized to XAB1 Fab) [1]: 58.5 fold
Classic ELISA (normalized to XAB1 Fab) [2]: 1.9 fold
Competition ELISA (normalized to XAB1 Fab) [3]: 64.9 fold
B3: MB486 (Fab, V domains shown)
VH: EVQLVESGGDLVQPGGSLRLSCAASGFTFSSYWMSWVRQAPGKGLEWVANIKQDGSEKYYVDSVKGRFTISRDNAKNSLYLQMNSLRAEDTAVYYCARDRGSLYYWGQGTLVTVSS
VL: AIQLTQSPSSLSASVGDRVTITCRPSQGIWWMLAWYQQKPGKAPKLLIYDASSLENGVPSRFSGSGSGTDFTLTISSLQPEDFATYYCQQFNSYPLTFGGGTKVEIK
notes: Fab variant of XAB1

Off-rate ELISA (normalized to XAB1 Fab) [1]: 34.9 fold
Classic ELISA (normalized to XAB1 Fab) [2]: 2.7 fold
Competition ELISA (normalized to XAB1 Fab) [3]: 36.9 fold
B4: MB464 (Fab, V domains shown)
VH: EVQLVESGGDLVQPGGSLRLSCAASGFTFSSYWMSWVRQAPGKGLEWVANIKQDGSEKYYVDSVKGRFTISRDNAKNSLYLQMNSLRAEDTAVYYCARDRGSLYYWGQGTLVTVSS
VL: AIQLTQSPSSLSASVGDRVTITCRPSQGIIYQLAWYQQKPGKAPKLLIYDASSLENGVPSRFSGSGSGTDFTLTISSLQPEDFATYYCQQFNSYPLTFGGGTKVEIK
notes: Fab variant of XAB1

Off-rate ELISA (normalized to XAB1 Fab) [1]: 47.1 fold
Classic ELISA (normalized to XAB1 Fab) [2]: 3.1 fold
Competition ELISA (normalized to XAB1 Fab) [3]: 45.2 fold
B6: MB483 (Fab, V domains shown)
VH: EVQLVESGGDLVQPGGSLRLSCAASGFTFSSYWMSWVRQAPGKGLEWVANIKQDGSEKYYVDSVKGRFTISRDNAKNSLYLQMNSLRAEDTAVYYCARDRGSLYYWGQGTLVTVSS
VL: AIQLTQSPSSLSASVGDRVTITCRPSQGIFWTLAWYQQKPGKAPKLLIYDASSLENGVPSRFSGSGSGTDFTLTISSLQPEDFATYYCQQFNSYPLTFGGGTKVEIK
notes: Fab variant of XAB1

Off-rate ELISA (normalized to XAB1 Fab) [1]: 43.9 fold
Classic ELISA (normalized to XAB1 Fab) [2]: 2.8 fold
Competition ELISA (normalized to XAB1 Fab) [3]: 60 fold
B10: MB468 (Fab, V domains shown)
VH: EVQLVESGGDLVQPGGSLRLSCAASGFTFSSYWMSWVRQAPGKGLEWVANIKQDGSEKYYVDSVKGRFTISRDNAKNSLYLQMNSLRAEDTAVYYCARDRGSLYYWGQGTLVTVSS
VL: AIQLTQSPSSLSASVGDRVTITCRPSQGIYWELAWYQQKPGKAPKLLIYDASSLENGVPSRFSGSGSGTDFTLTISSLQPEDFATYYCQQFNSYPLTFGGGTKVEIK
notes: Fab variant of XAB1
